Laboratory results: publication PMC10365013

Molecular target: avi-tagged SHOC2 (human) (UniProt Q9UQ13)
Assay: SPR

avi-tagged SHOC2 (human), sequence (Q9UQ13 whole entry): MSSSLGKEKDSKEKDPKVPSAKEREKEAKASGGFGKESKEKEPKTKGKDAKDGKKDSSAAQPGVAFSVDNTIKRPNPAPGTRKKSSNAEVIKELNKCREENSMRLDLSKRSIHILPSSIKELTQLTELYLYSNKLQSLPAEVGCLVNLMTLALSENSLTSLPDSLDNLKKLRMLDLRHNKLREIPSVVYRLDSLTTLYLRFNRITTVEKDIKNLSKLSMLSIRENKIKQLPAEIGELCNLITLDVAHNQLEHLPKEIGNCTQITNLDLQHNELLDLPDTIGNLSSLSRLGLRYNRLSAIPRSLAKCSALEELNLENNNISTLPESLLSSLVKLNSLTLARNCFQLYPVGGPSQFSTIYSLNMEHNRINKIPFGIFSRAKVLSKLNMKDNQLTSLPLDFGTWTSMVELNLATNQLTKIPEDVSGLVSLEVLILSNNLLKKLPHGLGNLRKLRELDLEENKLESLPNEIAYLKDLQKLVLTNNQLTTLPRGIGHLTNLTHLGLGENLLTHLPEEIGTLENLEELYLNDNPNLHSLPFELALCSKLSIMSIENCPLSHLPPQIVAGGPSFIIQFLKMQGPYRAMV

apparent KD of ternary complex formation with m3: 700 nM
Substance: KRAS (1–169) (from UniProt P01116 1-169) (domain or fragment)
